This is an account of results in CN111303278A.

Experiment [1] has as its target RSV株A/长(ATCC目录号VR-26)的G蛋白 (RSV A/长) (UniProt P20895). The experiment can be described thus: cell-based or functional assay.
Experiment [2] concerns the target 长RSV G肽 (表15). The experiment can be described thus: ELISA, biotinylated peptide on avidin plate, mAb titrated.
The target in experiment [3] is RSV G中央保守域(CCD)生物素结合的肽 SYM-1706 (RSV). Described as above.

B1: CR9505 (antibody, from another filing, V domains shown)
VH: EVQLQQSGPELVKPGTSVKISCKASGYSFTGFTMNWVKQSHGKNLEWFGLINPFNGNTGYNQKFKGKATLTVDKSSSTAFMELLSLTSEDSAVYYCARSGKSYDYEAWFTYWGQGTLVTVSA
VL: DIVMTQTTLSLPVSLGNQASISCRSSQTIVHTNGNTYLEWYLQKPGQSPKLLIYKVSNRFSGVPDRFSGSGSGTDFILNISRVEAEDLGVYYCFQGSHVPFTFGSGTKLEIKR
In experiment [1], B1 had an IC50 (空斑减少分析, 50%中和空斑形成) of 0.018 µg/mL.

B2: CB030.1 (antibody, V domains shown)
VH: QVQLVQSGAEMKRPGSSVKVSCKASGGTFSTFAINWVRQAPGQGFEWMGGVIPGFDSANYAQKFQGRLTMSADESTSTVYMELSSLRSDDTAVYYCAGNSGYCSGDSCAPNWGPGTLVTVSS
VL: DIVMTQSPLSLPVTPGEPASISCRSSQSLVHSNGYSYLDWYLQKPGQSPQLLIYLGSNRPSGVPDRFSGSGSGTDFTLKISRVEAEDVGVYFCMQNLQTPTFGGGTKVEIK
As a reminder, the IC50 is the concentration that gives 50% inhibition. A high value points to weaker potency in that assay. Consider B2, for which the IC50 in experiment [2] and in experiment [3] was 0.02 µg/mL each time.

B3: CB017.5L (antibody, V domains shown)
VH: QVQLVESGGGVVQPGRSLRLSCSASGFTFSVYAMHWVRQAPGQGLEWVAIIWYDGSNKYYADSVKGRFTISRDNSKETLYLQMNSLRVEDTAVYYCARDPIVGHTRDGLDVWGQGTTVTVSS
VL: SYELTQPPSVSVSPGQTARVTCSGDAMAEQYTYWYQQKPGQAPVLIIFKDTERPSGIPERFSGSSSGTTVTLTISGVQTEDEADYYCQSTDSSGTSWVFGGGTKLTVL
For B3, the IC50 in experiment [2] and in experiment [3] was 0.02 µg/mL throughout.
